Test results from publication PMC5159559.

Target: T1, APRIN (PDS5B) (UniProt Q9NTI5 1-1447)
T1 sequence: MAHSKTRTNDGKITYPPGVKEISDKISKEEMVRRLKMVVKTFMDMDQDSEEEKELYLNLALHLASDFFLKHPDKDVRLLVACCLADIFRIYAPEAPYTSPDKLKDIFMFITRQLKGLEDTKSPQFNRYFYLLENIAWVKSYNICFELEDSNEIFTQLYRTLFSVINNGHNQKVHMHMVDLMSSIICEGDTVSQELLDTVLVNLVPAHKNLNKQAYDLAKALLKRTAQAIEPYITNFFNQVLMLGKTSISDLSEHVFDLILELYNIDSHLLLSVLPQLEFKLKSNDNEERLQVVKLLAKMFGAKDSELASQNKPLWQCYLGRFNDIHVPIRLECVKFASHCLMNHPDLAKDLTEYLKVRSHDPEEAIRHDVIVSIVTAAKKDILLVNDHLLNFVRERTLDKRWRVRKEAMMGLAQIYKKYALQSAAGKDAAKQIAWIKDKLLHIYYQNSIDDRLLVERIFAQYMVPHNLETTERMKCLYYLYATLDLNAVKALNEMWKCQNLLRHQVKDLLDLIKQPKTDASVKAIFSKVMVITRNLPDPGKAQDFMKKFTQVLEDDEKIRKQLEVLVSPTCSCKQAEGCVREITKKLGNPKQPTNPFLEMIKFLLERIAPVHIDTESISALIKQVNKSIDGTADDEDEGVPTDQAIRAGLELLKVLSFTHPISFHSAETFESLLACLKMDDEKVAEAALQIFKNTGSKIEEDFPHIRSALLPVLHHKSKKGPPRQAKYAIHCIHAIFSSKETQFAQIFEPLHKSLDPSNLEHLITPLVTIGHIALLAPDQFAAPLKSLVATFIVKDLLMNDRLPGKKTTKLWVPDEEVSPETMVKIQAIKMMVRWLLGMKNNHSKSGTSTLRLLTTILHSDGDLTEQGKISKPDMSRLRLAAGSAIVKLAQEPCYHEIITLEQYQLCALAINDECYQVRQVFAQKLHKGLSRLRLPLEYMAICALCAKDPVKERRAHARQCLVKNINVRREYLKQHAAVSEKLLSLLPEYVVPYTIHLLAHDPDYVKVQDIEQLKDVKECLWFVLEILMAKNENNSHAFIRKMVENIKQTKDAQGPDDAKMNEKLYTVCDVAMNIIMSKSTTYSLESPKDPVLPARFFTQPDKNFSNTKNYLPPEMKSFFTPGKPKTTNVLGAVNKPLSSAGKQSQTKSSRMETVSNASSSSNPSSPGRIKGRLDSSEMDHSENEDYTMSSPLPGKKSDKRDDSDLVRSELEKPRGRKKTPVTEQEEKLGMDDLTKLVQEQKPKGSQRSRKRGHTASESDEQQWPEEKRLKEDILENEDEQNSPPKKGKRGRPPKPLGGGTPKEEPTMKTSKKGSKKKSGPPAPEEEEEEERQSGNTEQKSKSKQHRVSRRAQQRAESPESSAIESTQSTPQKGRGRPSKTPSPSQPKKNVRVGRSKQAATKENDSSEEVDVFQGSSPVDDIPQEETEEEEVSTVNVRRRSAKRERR
Assay: EMSA

B1: ssDNA (JYM925) (ssDNA)
DNA: GGGTGAACCTGCAGGTGGGCAAAGATGTCCTAGCAATGTAATCGTCAAGCTTTATGCCGT
B1: binds.

B2: dsDNA (JYM925/JYM945) (dsDNA)
DNA 1: GGGTGAACCTGCAGGTGGGCAAAGATGTCCTAGCAATGTAATCGTCAAGCTTTATGCCGT
DNA 2: ACGGCATAAAGCTTGACGATTACATTGCTAGGACATCTTTGCCCACCTGCAGGTTCACCC
B2: no binding.

B3: Splayed arms (JYM925/JYM926) (structured_DNA)
DNA 1: GGGTGAACCTGCAGGTGGGCAAAGATGTCCTAGCAATGTAATCGTCAAGCTTTATGCCGT
DNA 2: ACGCTGCCGAATTCTACCAGTGCCAGCGACGGACATCTTTGCCCACCTGCAGGTTCACCC
B3: binds.

B4: Holliday junction (JYM925/926/927/928) (structured_DNA)
DNA 1: GGGTGAACCTGCAGGTGGGCAAAGATGTCCTAGCAATGTAATCGTCAAGCTTTATGCCGT
DNA 2: ACGCTGCCGAATTCTACCAGTGCCAGCGACGGACATCTTTGCCCACCTGCAGGTTCACCC
DNA 3: ACGGCATAAAGCTTGACGATTACATTGCTACATGGAGCTGTCTAGAGGATCCGACTATCG
DNA 4: CGATAGTCGGATCCTCTAGACAGCTCCATGGTCGCTGGCACTGGTAGAATTCGGCAGCGT
B4: binds.
